# B1: Protein S100-G, P02633 (parent)
# chain: MSAKKSPEELKGIFEKYAAKEGDPNQLSKEELKLLLQTEFPSLLKGPSTLDELFEELDKNGDGEVSFEEFQVLVKKISQ
# Variants of: B1
# Conditions: Bos taurus; pH 7; 25 °C; Urea; CD; PIPES-KOH 20 mM; reversible: yes; structure 1IGV; whole UniProt chain shown
Variant,ddG of mutation (higher = less stable) [kcal/mol],denaturant midpoint (higher = more stable) [M],unfolding free energy [kcal/mol]
E21Q D23N E30Q,-0.93,6.1,1.22
E21Q,-0.38,5.6,0.67
D23N E30Q,-0.52,5.8,0.81
E21Q D23N,-1.19,6.2,1.48

# — FireProtDB (doi:10.1002/prot.340080106)
